Measurements published in article PMC9706529, “Identification of a S-(2-succino)cysteine breakdown pathway that uses a novel S-(2-succino) lyase” (The Journal of Biological Chemistry, 2022).

What was measured:
[1] = molecular target: T1, E. italicus 2SL (Ei) (Enterococcus italicus, UniProt E6LDH5); test: HPLC, […] nm, 2SNAC synthesis; format: biochemical; details: 50 mM Tris-HCl pH 8.0, 21 °C, 4.0 mM NAC; synthesis direction; read-out: Kinetic parameter / Km
T1 construct: gene purB; full-length, N-terminal hexahistidine tag (pET28b), expressed in E. coli BL21-(DE3)-RIPL, Ni-NTA purified; tag removal not mentioned
T1 sequence (E6LDH5 1-455): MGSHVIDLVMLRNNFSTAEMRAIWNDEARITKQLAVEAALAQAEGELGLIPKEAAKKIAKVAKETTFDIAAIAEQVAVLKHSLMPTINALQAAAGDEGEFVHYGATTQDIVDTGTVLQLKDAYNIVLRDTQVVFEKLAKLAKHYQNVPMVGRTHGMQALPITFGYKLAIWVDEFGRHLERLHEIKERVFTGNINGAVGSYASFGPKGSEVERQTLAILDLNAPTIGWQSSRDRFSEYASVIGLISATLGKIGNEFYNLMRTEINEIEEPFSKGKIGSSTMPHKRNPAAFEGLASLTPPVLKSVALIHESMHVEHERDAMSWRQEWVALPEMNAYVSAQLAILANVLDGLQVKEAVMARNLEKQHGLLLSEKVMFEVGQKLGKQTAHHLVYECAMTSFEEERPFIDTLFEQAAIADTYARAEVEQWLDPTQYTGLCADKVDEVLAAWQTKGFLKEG

[2] = molecular target: T2, D. dadantii 2SL (Dd) (Dickeya dadantii, UniProt E0SKP1); test: HPLC, […] nm, 2SNAC synthesis; format: biochemical; details: 50 mM Tris-HCl pH 8.0, 21 °C, 4.0 mM NAC; synthesis direction; read-out: Kinetic parameter / Km
T2 construct: gene Dda3937_00284; full-length, N-terminal hexahistidine tag (pET28b), expressed in E. coli BL21-(DE3)-RIPL, Ni-NTA purified; tag removal not mentioned
T2 sequence (E0SKP1 1-454): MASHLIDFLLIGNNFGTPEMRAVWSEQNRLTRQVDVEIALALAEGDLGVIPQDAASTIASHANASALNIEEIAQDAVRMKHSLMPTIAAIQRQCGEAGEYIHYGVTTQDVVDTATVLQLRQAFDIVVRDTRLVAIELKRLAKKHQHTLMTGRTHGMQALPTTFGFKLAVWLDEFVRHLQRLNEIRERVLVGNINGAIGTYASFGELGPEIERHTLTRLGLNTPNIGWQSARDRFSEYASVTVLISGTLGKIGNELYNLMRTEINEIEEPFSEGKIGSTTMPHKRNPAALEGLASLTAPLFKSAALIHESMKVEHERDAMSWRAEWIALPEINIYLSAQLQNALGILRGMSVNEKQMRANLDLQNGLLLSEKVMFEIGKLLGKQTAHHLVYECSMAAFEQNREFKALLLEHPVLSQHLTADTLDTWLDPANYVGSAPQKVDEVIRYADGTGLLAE

[3] = substrate: CC(=O)N[C@@H](CS)C(=O)O; test: purified protein; format: biochemical, Enterococcus italicus; details: 50 mM Tris-HCl pH 8.0, 21 °C, 30 mM fumarate, synthesis direction
[4] = substrate: CC(=O)N[C@@H](CSC(CC(=O)O)C(=O)O)C(=O)O; test: purified protein; format: biochemical, Enterococcus italicus; details: 100 mM Tris-HCl pH 8.0, 21 °C, 40 mM glutamate, 2 mM NAD+, breakdown direction
[5] = substrate: N[C@@H](CS)C(=O)O; test: purified protein; format: biochemical, Enterococcus italicus; details: 50 mM Tris-HCl pH 8.0, 21 °C, 30 mM fumarate, synthesis direction
[6] = substrate: N[C@@H](CSC(CC(=O)O)C(=O)O)C(=O)O; test: purified protein; format: biochemical, Enterococcus italicus; details: 100 mM Tris-HCl pH 8.0, 21 °C, 40 mM glutamate, 2 mM NAD+, breakdown direction
[7] = substrate: CC(=O)N[C@@H](CS)C(=O)O; test: purified protein; format: biochemical, Dickeya dadantii; details: 50 mM Tris-HCl pH 8.0, 21 °C, 30 mM fumarate, synthesis direction
[8] = substrate: CC(=O)N[C@@H](CSC(CC(=O)O)C(=O)O)C(=O)O; test: purified protein; format: biochemical, Dickeya dadantii; details: 100 mM Tris-HCl pH 8.0, 21 °C, 40 mM glutamate, 2 mM NAD+, breakdown direction
[9] = substrate: N[C@@H](CS)C(=O)O; test: purified protein; format: biochemical, Dickeya dadantii; details: 50 mM Tris-HCl pH 8.0, 21 °C, 30 mM fumarate, synthesis direction
[10] = substrate: N[C@@H](CSC(CC(=O)O)C(=O)O)C(=O)O; test: purified protein; format: biochemical, Dickeya dadantii; details: 100 mM Tris-HCl pH 8.0, 21 °C, 40 mM glutamate, 2 mM NAD+, breakdown direction

**Q.** With O=C(O)/C=C/C(=O)O [fumarate] as the molecule, how does the Km [1] read?
**A.** Its Km is 230 ± 20 µM.

**Q.** What about the Km [2] of the same molecule?
**A.** Its Km is 3240 ± 300 µM.

B1: E. italicus 2SL (Ei) (Enterococcus italicus DSM 15952) (protein)
chain: MGSHVIDLVMLRNNFSTAEMRAIWNDEARITKQLAVEAALAQAEGELGLIPKEAAKKIAKVAKETTFDIAAIAEQVAVLKHSLMPTINALQAAAGDEGEFVHYGATTQDIVDTGTVLQLKDAYNIVLRDTQVVFEKLAKLAKHYQNVPMVGRTHGMQALPITFGYKLAIWVDEFGRHLERLHEIKERVFTGNINGAVGSYASFGPKGSEVERQTLAILDLNAPTIGWQSSRDRFSEYASVIGLISATLGKIGNEFYNLMRTEINEIEEPFSKGKIGSSTMPHKRNPAAFEGLASLTPPVLKSVALIHESMHVEHERDAMSWRQEWVALPEMNAYVSAQLAILANVLDGLQVKEAVMARNLEKQHGLLLSEKVMFEVGQKLGKQTAHHLVYECAMTSFEEERPFIDTLFEQAAIADTYARAEVEQWLDPTQYTGLCADKVDEVLAAWQTKGFLKEG
notes: full-length, N-terminal hexahistidine tag (pET28b), expressed in E. coli BL21-(DE3)-RIPL, Ni-NTA purified; tag removal not mentioned
**Q.** B1 was tested. Which Km [3] did it give?
**A.** The Km was 390 ± 30 µM.

**Q.** And the Vmax [3]?
**A.** Its Vmax is 105 µmol/min/mg.

**Q.** And the kcat [3]?
**A.** Its kcat is 92.1 ± 7.1 s⁻¹.

**Q.** What about the kcat/Km [3] of the same molecule?
**A.** The kcat/Km was 236000 M⁻¹ s⁻¹.

**Q.** And the Km [4]?
**A.** Its Km is 1400 ± 100 µM.

**Q.** And the Vmax [4]?
**A.** Its Vmax is 2.42 µmol/min/mg.

**Q.** And the kcat [4]?
**A.** The kcat was 2.12 ± 0.21 s⁻¹.

**Q.** What about the kcat/Km [4] of the same molecule?
**A.** Its kcat/Km is 1510 M⁻¹ s⁻¹.

**Q.** And the Km [5]?
**A.** Its Km is 17800 ± 3600 µM.

**Q.** And the Vmax [5]?
**A.** Its Vmax is 11.9 µmol/min/mg.

**Q.** And the kcat [5]?
**A.** The kcat was 10.4 ± 1.5 s⁻¹.

**Q.** What about the kcat/Km [5] of the same molecule?
**A.** Its kcat/Km is 580 M⁻¹ s⁻¹.

**Q.** And the Km [6]?
**A.** The Km was 10700 ± 2300 µM.

**Q.** And the Vmax [6]?
**A.** Its Vmax is 0.058 µmol/min/mg.

**Q.** And the kcat [6]?
**A.** The kcat was 0.051 ± 0.004 s⁻¹.

**Q.** What about the kcat/Km [6] of the same molecule?
**A.** Its kcat/Km is 4.7 M⁻¹ s⁻¹.

B2: D. dadantii 2SL (Dd) (Dickeya dadantii 3937) (protein)
chain: MASHLIDFLLIGNNFGTPEMRAVWSEQNRLTRQVDVEIALALAEGDLGVIPQDAASTIASHANASALNIEEIAQDAVRMKHSLMPTIAAIQRQCGEAGEYIHYGVTTQDVVDTATVLQLRQAFDIVVRDTRLVAIELKRLAKKHQHTLMTGRTHGMQALPTTFGFKLAVWLDEFVRHLQRLNEIRERVLVGNINGAIGTYASFGELGPEIERHTLTRLGLNTPNIGWQSARDRFSEYASVTVLISGTLGKIGNELYNLMRTEINEIEEPFSEGKIGSTTMPHKRNPAALEGLASLTAPLFKSAALIHESMKVEHERDAMSWRAEWIALPEINIYLSAQLQNALGILRGMSVNEKQMRANLDLQNGLLLSEKVMFEIGKLLGKQTAHHLVYECSMAAFEQNREFKALLLEHPVLSQHLTADTLDTWLDPANYVGSAPQKVDEVIRYADGTGLLAE
notes: as for B1
**Q.** Which results are given for B2?
**A.** Km [7]: 690 ± 50 µM; Vmax [7]: 27.6 µmol/min/mg; kcat [7]: 24.2 ± 3.7 s⁻¹; kcat/Km [7]: 35000 M⁻¹ s⁻¹; Km [8]: 1200 ± 220 µM; Vmax [8]: 0.4 µmol/min/mg; kcat [8]: 0.35 ± 0.05 s⁻¹; kcat/Km [8]: 290 M⁻¹ s⁻¹; Km [9]: 19000 ± 1900 µM; Vmax [9]: 11.1 µmol/min/mg; kcat [9]: 9.7 ± 0.4 s⁻¹; kcat/Km [9]: 510 M⁻¹ s⁻¹; Km [10]: 12300 ± 1100 µM; Vmax [10]: 0.069 µmol/min/mg; kcat [10]: 0.06 ± 0.004 s⁻¹; kcat/Km [10]: 4.9 M⁻¹ s⁻¹
